Results on 1 substance are retold here after article PMC5813103, “Hydroxynitrile lyases from cyanogenic millipedes: molecular cloning, heterologous expression, and whole-cell biocatalysis for the production of (R)-mandelonitrile” (Scientific Reports, 2018).

In this assay the target is Hydroxynitrile lyase from Nedyopus tambanus tambanus (NttHNL) (Nedyopus tambanus tambanus). Description: SEC; gel filtration of the purified native enzyme; Superdex 200 10/300 equilibrated with PBS; native 52400 Da against 28800 Da on SDS-PAGE. A general note: Size exclusion chromatography separates by hydrodynamic size, large species first.

Substance “Hydroxynitrile lyase from Nedyopus tambanus tambanus (NttHNL) (enzyme)” gave a stoichiometry N of 2.

Broadly, the stoichiometry N is the number of molecules, sites or subunits per partner or assembly.
